Positions count from the first letter of the chain named. Square brackets hold non-standard residues; d marks the D form. GABA = NCCCC(=O)O
B1: BC2 nanobody (BC2-Nb) (VHH)
VHH: QVQLVESGGGLVQPGGSLTLSCTASGFTLDHYDIGWFRQAPGKEREGVSCINNSDDDTYYADSVKGRFTIFMDNAKDTVYLQMNSLKPEDTAIYYCAEARGCKRGRYEYDFWGQGTQVTVSS
notes: immobilised on agarose/sepharose beads in this assay; also called BC2 nanotrap (immobilised form); not shown: C-terminal 6xHis-tag added by pHEN6 vector
B2: BC2 nanobody (VHH)
VHH: B1 VHH
notes: immobilised on beads in this assay; also called BC2-Nb; BC2 nanotrap (immobilised)
B3: BC2-NbR106S (VHH)
VHH: B1 VHH with R106S
notes: headlock mutant of BC2-Nb; immobilised on beads in this assay
B4: BC2-NbR106S (VHH)
VHH: B1 VHH with R106S
notes: immobilised on beads in this assay; not shown: C-terminal 6xHis-tag added by pHEN6 vector

Key:
BC2T R3K = molecular target: T1, BC2T R3K (human); experiment: library pulldown, LC-MS of supernatant; ratio vs GFP-Nb control (0=captured, 1=not captured)
T1 construct: position 3 library (BC2TR3X), row K
T1 peptide: Ac-PDKKAAVSHWQQ-NH2
Description: (§1) In total, 12 different BC2T libraries displaying all 20 proteinogenic amino acids in one single position of the peptide were used in immunoprecipitation experiments. […] The direct comparison with the GFP-Nb made it possible to determine the quantitative degree of peptide capture without the need of labeled standards. […] The more peptide was captured the more the value approximates 0. It was not possible to discriminate between isoleucine (I) and leucine (L) peptide versions since these peptides are isobaric.
(§2) To investigate the binding specificity of the BC2T and derived mutants peptide libraries for each amino acid position of the sequence […] (SEQ ID NO:4) were synthesized with acetyl and amide groups located at the N-termini or C-termini respectively (Intavis). […] Incubations were performed in 300 μl PBS/0.01% CHAPS for 1 h on a HulaMixer (Life Technologies). Subsequent to a centrifugation step 10 μl supernatant were analyzed in a LC-MS procedure. Peptides were separated using an UltiMate3000 RSLCnano System (Thermo Scientific), composed of a C18 PepMap100μ-Precolumn (300 μm×5 mm; particle size: 5 μm; pore size: 100 Å—Thermo Scientific) and a C18 analytical column (Acclaim Rapid Separation LC (RSLC) Column: 150 mm×5 mm; particle size: 2.2 μm; pore size: 100 Å—Thermo Scientific). A step gradient was applied starting at 8% and ending after 20 min at 30% eluent B (80% acetonitrile, 20% H₂O, 0.1% formic acid).

BC2T V7W = molecular target: T2, BC2T V7W (human); experiment: as above
T2 construct: position 7 library, row W
T2 peptide: Ac-PDRKAAWSHWQQ-NH2
Description: as §1, §2

BC2T P1H = molecular target: T3, BC2T P1H (human); experiment: as above
T3 construct: position 1 library, row H
T3 peptide: Ac-HDRKAAVSHWQQ-NH2
Description: as §1, §2

BC2T A5N = molecular target: T4, BC2T A5N (human); experiment: as above
T4 construct: position 5 library, row N
T4 peptide: Ac-PDRKNAVSHWQQ-NH2
Description: as §1, §2

BC2T R3S = molecular target: T5, BC2T R3S (human); experiment: as above
T5 construct: position 3 library (BC2TR3X), row S
T5 peptide: Ac-PDSKAAVSHWQQ-NH2
Description: as §1, §2

BC2T V7S = molecular target: T6, BC2T V7S (human); experiment: as above
T6 construct: position 7 library, row S
T6 peptide: Ac-PDRKAASSHWQQ-NH2
Description: as §1, §2

BC2T P1W = molecular target: T7, BC2T P1W (human); experiment: as above
T7 construct: position 1 library, row W
T7 peptide: Ac-WDRKAAVSHWQQ-NH2
Description: as §1, §2

BC2T P1S = molecular target: T8, BC2T P1S (human); experiment: as above
T8 construct: position 1 library, row S
T8 peptide: Ac-SDRKAAVSHWQQ-NH2
Description: as §1, §2

BC2T D2K = molecular target: T9, BC2T D2K (human); experiment: as above
T9 construct: position 2 library, row K
T9 peptide: Ac-PKRKAAVSHWQQ-NH2
Description: as §1, §2

BC2T S8R = molecular target: T10, BC2T S8R; experiment: positional peptide library pulldown on immobilised Nb, LC-MS of supernatant; signal ratio to control GFP-Nb (1 = not captured, near 0 = captured)
T10 construct: positional scanning library member
T10 peptide: Ac-PDRKAAVRHWQQ-NH2
Method in brief: (§3)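 Unbound peptide left in supernatant after 1 h pulldown in PBS/0.01% CHAPS measured by reversed-phase LC-MS (8–30% eluent B gradient, 20 min).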

BC2T Q12R = molecular target: T11, BC2T Q12R; experiment: as above
T11 construct: positional scanning library member
T11 peptide: Ac-PDRKAAVSHWQR-NH2
Method in brief: as §3

BC2T Q12C(Abu) = molecular target: T12, BC2T Q12C(Abu) (SMILES …); experiment: as above
T12 construct: positional scanning library member
T12 peptide: Ac-PDRKAAVSHWQ[GABA]-NH2
Method in brief: as §3

BC2T Q12G = molecular target: T13, BC2T Q12G; experiment: as above
T13 construct: positional scanning library member
T13 peptide: Ac-PDRKAAVSHWQG-NH2
Method in brief: as §3

BC2T Q11K = molecular target: T14, BC2T Q11K; experiment: as above
T14 construct: positional scanning library member
T14 peptide: Ac-PDRKAAVSHWKQ-NH2
Method in brief: as §3

BC2T W10N = molecular target: T15, BC2T W10N; experiment: as above
T15 construct: positional scanning library member
T15 peptide: Ac-PDRKAAVSHNQQ-NH2
Method in brief: as §3

BC2T W10P = molecular target: T16, BC2T W10P; experiment: as above
T16 construct: positional scanning library member
T16 peptide: Ac-PDRKAAVSHPQQ-NH2
Method in brief: as §3

BC2T W10H = molecular target: T17, BC2T W10H; experiment: as above
T17 construct: positional scanning library member
T17 peptide: Ac-PDRKAAVSHHQQ-NH2
Method in brief: as §3

BC2T H9M = molecular target: T18, BC2T H9M; experiment: as above
T18 construct: positional scanning library member
T18 peptide: Ac-PDRKAAVSMWQQ-NH2
Method in brief: as §3

BC2T W10S = molecular target: T19, BC2T W10S; experiment: as above
T19 construct: positional scanning library member
T19 peptide: Ac-PDRKAAVSHSQQ-NH2
Method in brief: as §3

BC2T Q12(I/L2) = molecular target: T20, BC2T Q12(I/L2) (N-terminal acetyl; C-terminal amide); experiment: as above
T20 construct: positional scanning library member; I or L not resolved
Method in brief: as §3

BC2T H9W = molecular target: T21, BC2T H9W; experiment: as above
T21 construct: positional scanning library member
T21 peptide: Ac-PDRKAAVSWWQQ-NH2
Method in brief: as §3

BC2T S8F = molecular target: T22, BC2T S8F; experiment: as above
T22 construct: positional scanning library member
T22 peptide: Ac-PDRKAAVFHWQQ-NH2
Method in brief: as §3

| Binder | ratio (BC2T R3K) | ratio (BC2T V7W) | ratio (BC2T P1H) | ratio (BC2T A5N) | ratio (BC2T R3S) | ratio (BC2T V7S) | ratio (BC2T P1W) | ratio (BC2T P1S) | ratio (BC2T D2K) | ratio (BC2T S8R) | ratio (BC2T Q12R) | ratio (BC2T Q12C(Abu)) | ratio (BC2T Q12G) | ratio (BC2T Q11K) | ratio (BC2T W10N) | ratio (BC2T W10P) | ratio (BC2T W10H) | ratio (BC2T H9M) | ratio (BC2T W10S) | ratio (BC2T Q12(I/L2)) | other results |
| --- | --- | --- | --- | --- | --- | --- | --- | --- | --- | --- | --- | --- | --- | --- | --- | --- | --- | --- | --- | --- | --- |
| B1 | 0.2 | 0.1 | 0.3 | 0.3 | 0.6 | 0.3 | 0.1 | 0.3 | 0.2 | – | – | – | – | – | – | – | – | – | – | – | – |
| B2 | – | – | – | – | – | – | – | – | – | 0.5 | 0.1 | 0.1 | 0.2 | 0 | 1 | 1.1 | 1 | 0.1 | 1.1 | 0.1 | ratio (BC2T H9W): 0.1; ratio (BC2T S8F): 0.7 |
| B3 | – | – | – | – | – | – | – | – | – | 0.9 | 0.1 | 0.2 | 0.4 | 0.1 | 1.1 | 1.1 | 1.1 | 0.3 | 1.1 | 0.2 | ratio (BC2T H9W): 0.1; ratio (BC2T S8F): 0.9 |
| B4 | 0.5 | 0.3 | 0.6 | 0.5 | 0.9 | 0.4 | 0.3 | 0.6 | 0.2 | – | – | – | – | – | – | – | – | – | – | – | – |
